Experimental data: patent US20100330095A1 (U3 PHARMA, published 2010)

T1: mouse AXL (mouse, UniProt Q00993 19-888)
T1 construct: whole, on cells; Transiently expressed on HEK293T cells (pcDNA3-mAXL); also called mAXL
T1 sequence (looked up): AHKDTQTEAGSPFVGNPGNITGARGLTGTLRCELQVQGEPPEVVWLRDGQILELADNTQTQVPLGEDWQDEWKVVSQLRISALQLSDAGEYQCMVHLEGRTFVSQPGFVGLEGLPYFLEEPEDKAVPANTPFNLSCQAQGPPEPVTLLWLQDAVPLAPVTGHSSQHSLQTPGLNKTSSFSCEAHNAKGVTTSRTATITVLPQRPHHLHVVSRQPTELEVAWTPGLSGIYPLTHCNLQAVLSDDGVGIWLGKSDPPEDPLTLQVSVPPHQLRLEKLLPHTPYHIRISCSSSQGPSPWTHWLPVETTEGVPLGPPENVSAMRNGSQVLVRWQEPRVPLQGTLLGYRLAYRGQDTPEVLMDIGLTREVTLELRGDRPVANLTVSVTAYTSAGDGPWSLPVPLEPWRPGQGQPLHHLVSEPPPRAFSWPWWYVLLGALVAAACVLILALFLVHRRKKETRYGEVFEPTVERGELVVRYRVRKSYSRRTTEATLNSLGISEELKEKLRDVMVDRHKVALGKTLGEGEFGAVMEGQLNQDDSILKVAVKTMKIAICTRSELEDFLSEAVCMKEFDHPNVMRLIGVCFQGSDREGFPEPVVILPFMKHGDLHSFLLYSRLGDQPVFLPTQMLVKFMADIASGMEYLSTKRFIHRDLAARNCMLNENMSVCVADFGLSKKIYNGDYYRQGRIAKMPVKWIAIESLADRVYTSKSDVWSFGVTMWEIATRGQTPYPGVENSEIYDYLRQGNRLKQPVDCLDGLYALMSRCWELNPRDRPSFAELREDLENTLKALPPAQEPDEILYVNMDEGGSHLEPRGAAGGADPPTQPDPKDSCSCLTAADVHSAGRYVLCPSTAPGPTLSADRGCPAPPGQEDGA

T2: human Mer (human, UniProt Q12866 21-999)
T2 construct: whole, on cells; Transiently expressed on HEK293T cells; also called hMer
T2 sequence (looked up): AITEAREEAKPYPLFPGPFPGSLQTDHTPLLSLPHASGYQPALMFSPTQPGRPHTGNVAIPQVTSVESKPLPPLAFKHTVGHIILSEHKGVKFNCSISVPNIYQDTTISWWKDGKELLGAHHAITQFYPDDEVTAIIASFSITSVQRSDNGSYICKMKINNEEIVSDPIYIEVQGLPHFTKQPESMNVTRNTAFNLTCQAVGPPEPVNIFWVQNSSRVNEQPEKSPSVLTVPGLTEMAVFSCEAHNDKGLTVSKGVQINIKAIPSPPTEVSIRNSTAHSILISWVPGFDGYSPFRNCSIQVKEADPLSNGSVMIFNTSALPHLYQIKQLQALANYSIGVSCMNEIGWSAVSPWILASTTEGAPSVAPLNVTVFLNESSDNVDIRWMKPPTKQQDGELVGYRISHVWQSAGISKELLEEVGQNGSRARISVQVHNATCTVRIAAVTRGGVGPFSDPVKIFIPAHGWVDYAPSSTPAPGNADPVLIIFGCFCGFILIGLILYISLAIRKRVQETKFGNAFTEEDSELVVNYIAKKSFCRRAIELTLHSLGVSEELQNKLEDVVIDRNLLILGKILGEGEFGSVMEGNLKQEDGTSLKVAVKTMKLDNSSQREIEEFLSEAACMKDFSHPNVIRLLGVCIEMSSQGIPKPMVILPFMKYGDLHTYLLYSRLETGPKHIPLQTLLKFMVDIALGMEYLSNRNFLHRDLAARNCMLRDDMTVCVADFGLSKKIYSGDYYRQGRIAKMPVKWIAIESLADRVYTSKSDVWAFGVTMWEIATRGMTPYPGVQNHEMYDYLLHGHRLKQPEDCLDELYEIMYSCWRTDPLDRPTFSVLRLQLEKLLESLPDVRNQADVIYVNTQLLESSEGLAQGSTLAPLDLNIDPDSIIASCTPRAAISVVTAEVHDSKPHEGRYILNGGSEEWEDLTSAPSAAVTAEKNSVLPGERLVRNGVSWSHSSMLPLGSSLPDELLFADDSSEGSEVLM


Columns and labels:
mouse AXL = target: T1, mouse AXL; assay: flow cytometry, transiently transfected HEK293T cells
Protocol: (§1) FIG. 3. Flow cytometry analysis of cross-reactivity of rat-anti AXL antibodies with mouse and cynomolgus monkey AXL as well as human Mer and Sky. HEK293T fibroblasts were transiently transfected with pcDNA3, pcDNA3-hAXL, pcDNA3 mAXL, pcDNA3-cyAXL, pcDNA3-hMer, or pcDNA3-hSky. […] See text for details.
(§2) For FACS analysis, 2×10⁵ cells were harvested with 10 mM EDTA in PBS, washed once with FACS buffer (PBS, 3% FCS, 0.4% azide) and seeded on a 96 well round bottom plate. […] After incubation on ice for 1 h, cells were washed twice with chilled FACS buffer and resuspended with PE-conjugated donkey anti-rat (Jackson) secondary antibody diluted 1:50 in FACS buffer (100 μl/well) or PE-conjugated donkey anti-mouse secondary antibody for control. Protected from light, cells were incubated on ice for 30 min, washed twice with FACS buffer and analyzed using an Epics XL-MCL flow cytometer (Beckman Coulter).

human Mer = target: T2, human Mer; assay: as above
Protocol: as §1, §2

binding result (mouse AXL) | binding result (human Mer) | Binder
no binding (tested: 10 µg/ml) | no binding (tested: 10 µg/ml) | III 11D5 (antibody, rat IgG2a, V domains shown, rat hybridoma antibody, antagonistic) VH: EVQLQESGPGLVKPSQSLSLTCSVTGYSITSNYWGWIRKFPGNKMEWIGHITNSGNTTYNPSLKSRISISRDTSRNQFFLQLNSVTTEDTATYYCAKGAFDYWGQGVMVTVSS VL: DIQMTQSPSSMSTSLGDRVTITCRASQDIGNYLSWFQQKVGKSPRRMIYGAIKLAVGVPSRFSGSRSGSDYSLTISSLESEDMAIYYCLQYIQFPLTFGSGTKLELK
no binding (tested: 10 µg/ml) | no binding (tested: 10 µg/ml) | I 11B7 (antibody, V domains shown, rat hybridoma antibody, antagonistic) VH: EVQLQESGPGLVKPSQSLSLTCSVTGYSITSNYWGWIRKFPGDKMEWMGYITYSGSTSYNPSLKSRISITRDTSKNQFFLQLNSVTSEDTATYYCAITTFYYWGQGVMVTVSS VL: DIQMTQAPSSLPASLGDRVTITCRASQDIGNYLRWFQQKPGKSPRLMISGATNLAAGVPSRFSGSRSGSDYSLTISSLESEDMADYYCLQSKESPWTFGGGTKLELK
no binding (tested: 10 µg/ml) | no binding (tested: 10 µg/ml) | I 10D12 (antibody, V domains shown, rat hybridoma antibody, antagonistic; subclass G1) VH: EVQLQESGPGLVKPSQSLSLTCSVTGYSITSNYWGWIRKFPGNKMEWMGYITNSGGTAYNPSLKSRISITRDTSKNQFFLQLNSVIPEDSATYFCSRTPWDWGQGVMVTVSS VL: DIQMTQAPSSLPASLGDRVTIACRASQDIGNYLRWFQQKPGKSPRLMISGATNLAAGVPSRFSGSRSGSDYSRTISSLESEDMADYYCLQSKESPWTFGGGTKLELK
